What was measured:
[1] = biological target: CD3 on Jurkat细胞 (Jurkat靶标细胞) (human) (UniProt P07766); assay: flow cytometry (FACSCalibur), culture supernatant on Jurkat cells; negative control sdAb
[2] = biological target: CD3 on Jurkat细胞 (Jurkat靶标细胞) (human) (UniProt P07766); assay: flow cytometry (FACSCalibur), culture supernatant on Jurkat cells
CD3-His蛋白(MP-5) = biological target: T1, CD3-His蛋白(MP-5) (human, UniProt P07766 23-126); assay: BLI (Octet RED96) off-rate screening; sdAb-SASA from expression medium captured on BSA-coated biosensor, CD3 at 100 nM in solution, 30°C, 1:1 Langmuir model
T1 construct: also called CD3蛋白; not shown: His tag
T1 sequence (P07766 23-126): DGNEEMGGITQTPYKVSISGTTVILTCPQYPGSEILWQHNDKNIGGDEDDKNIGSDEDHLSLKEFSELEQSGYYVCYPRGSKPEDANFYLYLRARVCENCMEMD

Molecule: NC-sdAb (相同形式的非相关性sdAb) (VHH)
- MFI [1]: 115 MFI

B1: 抗CD3单域抗体 C12 (sdAb clone C12) (VHH)
VHH: QVQLQESGGGLVQPGGSLRLSCAASGSMYRPNTMGWHRQAPGEQRKLVARITSDGNTNYADSVKGRFTISRDNAKNTVHLEMNSLQPEDTAVYYCYYSDFVNLRGFWGQGTQVTVSS
notes: Llama sdAb from a phage display library; Tested as unpurified sdAb-SASA protein in E. coli expression medium or culture supernatant; 1 in its text; also called sdAb-SASA; not shown: SASA fusion partner from the pFASEBA vector (sdAb-SASA protein in expression medium)
- MFI [2]: 2330 MFI
- koff (CD3-His蛋白(MP-5)): 6.61e-05 s⁻¹
